The text below walks through data of PMC5339343, “Evaluation of Rint1 as a modifier of intestinal tumorigenesis and cancer risk” (PLoS ONE, 2017).

For test [1], the target named is T1, FLAG-tagged full-length human RINT1 I152M; I168T (human, UniProt Q6NUQ1 1-792, I152M | I168T).
T1 construct: The results sentence on UVRAG prints I152T;I168T; the methods made only I152M and I168T together; also called RINT1 n.456A>G; n.503T>C (I152M and I168T); source: HEK293T, transfected, in lysate
The test can be described thus: co-IP; FLAG-RINT1 plasmids co-transfected with the UVRAG plasmid into HEK293T; lysate in TNE buffer (10 mM Tris acetate, 0.5% NP-40, 2 mM EDTA); anti-FLAG M2 affinity gel overnight, eluted with FLAG peptide; blot for UVRAG, quantified. To be noted: partners not purified.

In test [2] the target is T2, FLAG-tagged full-length human RINT1 I152M (human, UniProt Q6NUQ1 1-792, I152M).
T2 construct: The change copies a variant of the B6 mouse Rint1 allele into human RINT1; The results sentence on UVRAG prints I152T; the methods made only I152M; also called RINT1 n.456A>G (I152M); RINT1 I152M allele; source: HEK293T, transfected, in lysate
T2 sequence (Q6NUQ1 whole entry I152M): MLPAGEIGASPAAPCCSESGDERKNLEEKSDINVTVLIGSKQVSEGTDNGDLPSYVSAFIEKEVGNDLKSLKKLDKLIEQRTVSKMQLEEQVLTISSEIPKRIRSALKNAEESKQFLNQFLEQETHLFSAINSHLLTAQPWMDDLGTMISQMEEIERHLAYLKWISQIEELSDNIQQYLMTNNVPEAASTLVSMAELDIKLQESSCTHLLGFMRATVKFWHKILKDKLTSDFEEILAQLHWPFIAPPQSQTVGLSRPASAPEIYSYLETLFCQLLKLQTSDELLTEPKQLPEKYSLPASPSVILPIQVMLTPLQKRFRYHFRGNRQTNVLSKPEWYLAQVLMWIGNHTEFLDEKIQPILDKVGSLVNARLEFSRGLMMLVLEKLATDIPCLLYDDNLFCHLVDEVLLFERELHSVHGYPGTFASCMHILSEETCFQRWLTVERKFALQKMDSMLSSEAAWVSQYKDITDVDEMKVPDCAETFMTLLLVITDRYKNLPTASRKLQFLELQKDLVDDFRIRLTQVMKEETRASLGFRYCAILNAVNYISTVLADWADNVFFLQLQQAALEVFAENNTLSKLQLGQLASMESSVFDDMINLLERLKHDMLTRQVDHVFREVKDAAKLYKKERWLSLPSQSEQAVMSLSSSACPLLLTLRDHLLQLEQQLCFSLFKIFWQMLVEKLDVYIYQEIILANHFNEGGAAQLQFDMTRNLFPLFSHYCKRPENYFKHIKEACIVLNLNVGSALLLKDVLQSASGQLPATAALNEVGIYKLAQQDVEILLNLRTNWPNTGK
Described as above. The conditions noted are these: partners not purified.

T1 sequence (Q6NUQ1 whole entry I152M/I168T): as the sequence (Q6NUQ1 whole entry I152M) above, with I168T counted along it

B1: UVRAG expressed from pCl-neo-HA-hUVRAG (natural protein, human, UniProt Q9P2Y5 1-699, looked up)
chain: MSASASVGGPVPQPPPGPAAALPPGSAARALHVELPSQQRRLRHLRNIAARNIVNRNGHQLLDTYFTLHLCSTEKIYKEFYRSEVIKNSLNPTWRSLDFGIMPDRLDTSVSCFVVKIWGGKENIYQLLIEWKVCLDGLKYLGQQIHARNQNEIIFGLNDGYYGAPFEHKGYSNAQKTILLQVDQNCVRNSYDVFSLLRLHRAQCAIKQTQVTVQKIGKEIEEKLRLTSTSNELKKKSECLQLKILVLQNELERQKKALGREVALLHKQQIALQDKGSAFSAEHLKLQLQKESLNELRKECTAKRELFLKTNAQLTIRCRQLLSELSYIYPIDLNEHKDYFVCGVKLPNSEDFQAKDDGSIAVALGYTAHLVSMISFFLQVPLRYPIIHKGSRSTIKDNINDKLTEKEREFPLYPKGGEKLQFDYGVYLLNKNIAQLRYQHGLGTPDLRQTLPNLKNFMEHGLMVRCDRHHTSSAIPVPKRQSSIFGGADVGFSGGIPSPDKGHRKRASSENERLQYKTPPPSYNSALAQPVTTVPSMGETERKITSLSSSLDTSLDFSKENKKKGEDLVGSLNGGHANVHPSQEQGEALSGHRATVNGTLLPSEQAGSASVQLPGEFHPVSEAELCCTVEQAEEIIGLEATGFASGDQLEAFNCIPVDSAVAVECDEQVLGEFEEFSRRIYALNENVSSFRRPRRSSDK
notes: UVRAG, human (hUVRAG), from the plasmid pCl-neo-HA-hUVRAG (Itakura et al. 2008); Detected with an anti-UVRAG antibody; source: HEK293T, transfected, in lysate
Take B1: the “fold change of UVRAG co-immunoprecipitation against wild-type RINT1” value in test [1] and in test [2] was at least 2 fold throughout.
